{
  "source": "patent US20050065082",
  "key": {"[1]": {"biological_target": "T1, GST-BPL1 (N-terminal GST fusion protein of human BPL1, holocarboxylase synthetase)", "T1 chain": "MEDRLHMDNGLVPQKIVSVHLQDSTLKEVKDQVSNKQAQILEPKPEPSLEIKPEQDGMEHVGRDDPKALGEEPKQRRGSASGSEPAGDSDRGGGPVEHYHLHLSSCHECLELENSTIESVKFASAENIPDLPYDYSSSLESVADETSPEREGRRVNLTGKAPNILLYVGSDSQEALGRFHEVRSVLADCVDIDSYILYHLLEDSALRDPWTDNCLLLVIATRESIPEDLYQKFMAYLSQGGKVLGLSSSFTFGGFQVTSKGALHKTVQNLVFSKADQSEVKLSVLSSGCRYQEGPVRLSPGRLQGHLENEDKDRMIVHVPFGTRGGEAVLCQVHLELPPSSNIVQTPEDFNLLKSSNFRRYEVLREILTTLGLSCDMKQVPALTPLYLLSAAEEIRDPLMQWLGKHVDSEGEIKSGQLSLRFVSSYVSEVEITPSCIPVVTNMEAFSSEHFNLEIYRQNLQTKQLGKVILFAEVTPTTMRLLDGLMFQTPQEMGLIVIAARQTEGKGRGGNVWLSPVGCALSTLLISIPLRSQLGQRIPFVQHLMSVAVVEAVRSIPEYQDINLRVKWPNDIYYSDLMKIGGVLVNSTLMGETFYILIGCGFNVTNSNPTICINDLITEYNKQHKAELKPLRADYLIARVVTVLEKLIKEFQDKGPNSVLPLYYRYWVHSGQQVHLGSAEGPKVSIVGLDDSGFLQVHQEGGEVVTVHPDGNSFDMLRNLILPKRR"}, "[2]": {"biological_target": "GST (glutathione S-transferase) [GST: P08515]"}, "[3]": {"biological_target": "T2, GST-KIAA1491 complete (N-terminal GST-fusion protein of KIAA1491 complete)", "T2 chain": "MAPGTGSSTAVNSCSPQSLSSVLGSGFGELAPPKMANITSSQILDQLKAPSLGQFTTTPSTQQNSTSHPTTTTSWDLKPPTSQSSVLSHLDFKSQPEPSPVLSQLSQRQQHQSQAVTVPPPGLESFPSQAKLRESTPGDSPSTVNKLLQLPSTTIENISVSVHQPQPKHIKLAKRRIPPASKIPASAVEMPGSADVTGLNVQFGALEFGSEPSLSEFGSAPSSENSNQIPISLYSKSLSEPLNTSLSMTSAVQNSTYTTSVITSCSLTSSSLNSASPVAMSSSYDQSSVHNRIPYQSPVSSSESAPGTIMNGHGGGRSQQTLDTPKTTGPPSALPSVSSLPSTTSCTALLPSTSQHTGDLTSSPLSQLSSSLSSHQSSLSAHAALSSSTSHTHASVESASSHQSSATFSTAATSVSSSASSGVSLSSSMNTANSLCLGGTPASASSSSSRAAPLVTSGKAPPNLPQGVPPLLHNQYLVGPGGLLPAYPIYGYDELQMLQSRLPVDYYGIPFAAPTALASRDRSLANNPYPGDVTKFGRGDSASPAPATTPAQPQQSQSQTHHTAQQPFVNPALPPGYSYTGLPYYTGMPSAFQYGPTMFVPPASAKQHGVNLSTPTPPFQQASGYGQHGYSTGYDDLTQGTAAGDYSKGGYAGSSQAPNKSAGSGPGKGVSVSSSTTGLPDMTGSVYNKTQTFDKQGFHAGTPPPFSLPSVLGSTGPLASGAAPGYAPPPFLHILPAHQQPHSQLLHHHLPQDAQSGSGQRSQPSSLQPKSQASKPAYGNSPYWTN"}, "[4]": {"biological_target": "GST-KIAA0596CT (N-terminal GST fusion protein of human KIAA0596CT, the C-terminal region, amino acids 639 to 1217, of KIAA0596) [GST: P08515]"}, "[5]": {"biological_target": "GST-BMAL1 (N-terminal GST fusion protein of human BMAL1; BMAL1b was used)", "sequence (chain, as listed by the source)": "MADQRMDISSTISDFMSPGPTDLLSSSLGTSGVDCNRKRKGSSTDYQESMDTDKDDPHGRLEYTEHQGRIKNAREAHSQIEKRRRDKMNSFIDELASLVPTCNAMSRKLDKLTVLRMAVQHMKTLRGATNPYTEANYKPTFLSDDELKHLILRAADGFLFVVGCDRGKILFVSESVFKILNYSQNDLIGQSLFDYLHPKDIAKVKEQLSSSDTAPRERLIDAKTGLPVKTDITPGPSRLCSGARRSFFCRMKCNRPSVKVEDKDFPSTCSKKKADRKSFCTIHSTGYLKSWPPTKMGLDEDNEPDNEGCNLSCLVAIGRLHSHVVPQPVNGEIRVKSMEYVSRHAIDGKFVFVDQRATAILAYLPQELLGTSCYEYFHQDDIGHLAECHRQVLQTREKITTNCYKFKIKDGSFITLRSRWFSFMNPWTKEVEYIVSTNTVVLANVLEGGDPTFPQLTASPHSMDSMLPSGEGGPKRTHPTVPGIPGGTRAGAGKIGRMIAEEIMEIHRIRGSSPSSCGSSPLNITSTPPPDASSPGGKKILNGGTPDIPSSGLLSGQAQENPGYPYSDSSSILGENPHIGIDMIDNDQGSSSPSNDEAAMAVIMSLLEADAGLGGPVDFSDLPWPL"}},
  "data": [
    {"protein": "His-JNK3 (activated human JNK3 (JNK3α1) with an N-terminal histidine-tag) (protein) MSLHFLYYCSEPTLDVKIAFCQGFDKQVDVSYIAKHYNMSKSKVDNQFYSVEVGDSTFTVLKRYQNLKPIGSGAQGIVCAAYDAVLDRNVAIKKLSRPFQNQTHAKRAYRELVLMKCVNHKNIISLLNVFTPQKTLEEFQDVYLVMELMDANLCQVIQMELDHERMSYLLYQMLCGIKHLHSAGIIHRDLKPSNIVVKSDCTLKILDFGLARTAGTSFMMTPYVVTRYYRAPEVILGMGYKENVDIWSVGCIMGEMVRHKILFPGRDYIDQWNKVIEQLGTPCPEFMKKLQPTVRNYVENRPKYAGLTFPKLFPDSLFPADSEHNKLKASQARDLLSKMLVIDPAKRISVDDALQHPYINVWYDPAEVEAPPPQIYDKQLDEREHTIEEWKELIYKEVMNSEEKTKNGVVKGQPSPSAQVQQ", "values": [
      {"measurement": "Relative Strength (%) of the phosphorylated GST-c-Jun (1-79) band, 1.0 µg added protein (none added = 100)", "setting": "[1]", "result": 81.6, "unit": "%"},
      {"measurement": "Relative Strength (%) of the phosphorylated GST-c-Jun (1-79) band, 2.0 µg added protein (none added = 100)", "setting": "[1]", "result": 59.7, "unit": "%"},
      {"measurement": "phosphorylation of GST-BPL1 by JNK3 (in vitro kinase assay, [γ-32P] ATP, autoradiography)", "setting": "[1]", "result": "The phosphorylation of GST-BPL1 by JNK3 was observed. Since the phosphorylation was dependent on the dose of JNK3"},
      {"measurement": "Relative Strength (%) of the phosphorylated GST-c-Jun (1-79) band, 1.0 µg added protein (none added = 100)", "setting": "[2]", "result": 92.7, "unit": "%"},
      {"measurement": "Relative Strength (%) of the phosphorylated GST-c-Jun (1-79) band, 2.0 µg added protein (none added = 100)", "setting": "[2]", "result": 93.6, "unit": "%"},
      {"measurement": "Relative Strength (%) of the phosphorylated GST-c-Jun (1-79) band, 1.0 µg added protein (none added = 100)", "setting": "[3]", "result": 71.5, "unit": "%"},
      {"measurement": "Relative Strength (%) of the phosphorylated GST-c-Jun (1-79) band, 2.0 µg added protein (none added = 100)", "setting": "[3]", "result": 67.1, "unit": "%"},
      {"measurement": "phosphorylation of GST-KIAA1491 complete by JNK3 (in vitro kinase assay, [γ-32P] ATP, autoradiography)", "setting": "[3]", "result": "GST-KIAA1491 complete were phosphorylated by JNK3 ... the phosphorylation was dependent on the dose of JNK3"},
      {"measurement": "Relative Strength (%) of the phosphorylated GST-c-Jun (1-79) band, 1.0 µg added protein (none added = 100)", "setting": "[4]", "result": 70.6, "unit": "%"},
      {"measurement": "Relative Strength (%) of the phosphorylated GST-c-Jun (1-79) band, 2.0 µg added protein (none added = 100)", "setting": "[4]", "result": 33.5, "unit": "%"},
      {"measurement": "Relative Strength (%) of the phosphorylated GST-c-Jun (1-79) band, 1.0 µg added protein (none added = 100)", "setting": "[5]", "result": 15.3, "unit": "%"},
      {"measurement": "Relative Strength (%) of the phosphorylated GST-c-Jun (1-79) band, 2.0 µg added protein (none added = 100)", "setting": "[5]", "result": 4.7, "unit": "%"},
      {"measurement": "phosphorylation of GST-BMAL1 by JNK3 (in vitro kinase assay, [γ-32P] ATP, autoradiography)", "setting": "[5]", "result": "the phosphorylation of GST-BMAL1 by JNK3 was observed ... the phosphorylation was dependent on the dose of JNK3"}
    ]}
  ]
}
